Measurements as given in US20130005646A1 (Novo Nordisk, published 2013).
Starred links: 1 amine or outer side, 2 acyl side, 3 side chain; linkers in the order of their positions; H or OH if unused. Positions of bridges follow the written chain, without caps; N, C: chain ends. Groups on a side chain read outwards from the residue. No end group written: not given here. *: point of attachment. X1 = (S)‑4‑Carboxy‑4‑(19-carboxynonadecanoylamino)butyryl, O=C(O)CCCCCCCCCCCCCCCCCCC(=O)N[C@@H](CCC(=O)*)C(=O)O; C20 diacid = O=C(O)CCCCCCCCCCCCCCCCCCC(=O)*; C18 diacid = O=C(O)CCCCCCCCCCCCCCCCC(=O)*; γGlu = O=C(O)[C@H](CCC(=O)[*:2])N[*:1]

T1: human amylin 3(a) receptor (human calcitonin receptor + RAMP-3) (human, UniProt P30988 25-474; O60896 24-148)
T1 sequence (looked up) 1: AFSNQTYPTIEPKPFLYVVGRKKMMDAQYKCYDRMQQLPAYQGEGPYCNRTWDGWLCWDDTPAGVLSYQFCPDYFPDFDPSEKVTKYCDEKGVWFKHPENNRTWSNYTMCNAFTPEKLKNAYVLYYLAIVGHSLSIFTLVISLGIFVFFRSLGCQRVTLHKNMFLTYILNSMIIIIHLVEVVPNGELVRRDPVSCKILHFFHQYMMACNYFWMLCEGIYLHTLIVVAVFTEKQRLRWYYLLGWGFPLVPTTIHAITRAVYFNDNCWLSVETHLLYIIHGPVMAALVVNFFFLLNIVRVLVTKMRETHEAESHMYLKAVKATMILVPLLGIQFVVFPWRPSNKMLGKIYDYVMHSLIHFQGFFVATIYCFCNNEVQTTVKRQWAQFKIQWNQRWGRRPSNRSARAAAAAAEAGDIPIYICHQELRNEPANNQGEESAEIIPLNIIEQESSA
T1 sequence (looked up) 2: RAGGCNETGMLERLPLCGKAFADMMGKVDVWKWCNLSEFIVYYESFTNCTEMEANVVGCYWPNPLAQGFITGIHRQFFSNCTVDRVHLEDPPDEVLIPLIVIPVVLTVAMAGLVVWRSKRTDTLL

T2: human calcitonin (a) receptor (human, UniProt P30988 25-474)
T2 sequence (looked up): T1 sequence (looked up) 1

B1: N-alpha-[(S)-4-Carboxy-4-(19-carboxynonadecanoylamino)butyryl]-[Arg1,Pro37]-pramlintide (peptide)
peptide: {C20 diacid-γGlu}-RCNTATCATQRLANFLVHSSNNFGPILPPTNVGSNTP-NH2
modifications: disulfide 2-7
SMILES: CC[C@H](C)[C@H](NC(=O)[C@@H]1CCCN1C(=O)CNC(=O)[C@H](Cc1ccccc1)NC(=O)[C@H](CC(N)=O)NC(=O)[C@H](CC(N)=O)NC(=O)[C@H](CO)NC(=O)[C@H](CO)NC(=O)[C@H](Cc1c[nH]cn1)NC(=O)[C@@H](NC(=O)[C@H](CC(C)C)NC(=O)[C@H](Cc1ccccc1)NC(=O)[C@H](CC(N)=O)NC(=O)[C@H](C)NC(=O)[C@H](CC(C)C)NC(=O)[C@H](CCCNC(=N)N)NC(=O)[C@H](CCC(N)=O)NC(=O)[C@@H](NC(=O)[C@H](C)NC(=O)[C@@H]1CSSC[C@H](NC(=O)[C@H](CCCNC(=N)N)NC(=O)CC[C@H](NC(=O)CCCCCCCCCCCCCCCCCCC(=O)O)C(=O)O)C(=O)N[C@@H](CC(N)=O)C(=O)N[C@@H]([C@@H](C)O)C(=O)N[C@@H](C)C(=O)N[C@@H]([C@@H](C)O)C(=O)N1)[C@@H](C)O)C(C)C)C(=O)N[C@@H](CC(C)C)C(=O)N1CCC[C@H]1C(=O)N1CCC[C@H]1C(=O)N[C@H](C(=O)N[C@@H](CC(N)=O)C(=O)N[C@H](C(=O)NCC(=O)N[C@@H](CO)C(=O)N[C@@H](CC(N)=O)C(=O)N[C@H](C(=O)N1CCC[C@H]1C(N)=O)[C@@H](C)O)C(C)C)[C@@H](C)O
B2: N-epsilon1-[(S)-4-Carboxy-4-(17-carboxyheptadecanoylamino)butyryl]-[Glu14,His17,His35]-pramlintide (peptide)
peptide: K([γGlu-C18 diacid])CNTATCATQRLAEFLHHSSNNFGPILPPTNVGSHTY-NH2
modifications: disulfide 2-7; N-terminus assumed
SMILES: CC[C@H](C)[C@H](NC(=O)[C@@H]1CCCN1C(=O)CNC(=O)[C@H](Cc1ccccc1)NC(=O)[C@H](CC(N)=O)NC(=O)[C@H](CC(N)=O)NC(=O)[C@H](CO)NC(=O)[C@H](CO)NC(=O)[C@H](Cc1c[nH]cn1)NC(=O)[C@H](Cc1c[nH]cn1)NC(=O)[C@H](CC(C)C)NC(=O)[C@H](Cc1ccccc1)NC(=O)[C@H](CCC(=O)O)NC(=O)[C@H](C)NC(=O)[C@H](CC(C)C)NC(=O)[C@H](CCCNC(=N)N)NC(=O)[C@H](CCC(N)=O)NC(=O)[C@@H](NC(=O)[C@H](C)NC(=O)[C@@H]1CSSC[C@H](NC(=O)[C@@H](N)CCCCNC(=O)CC[C@H](NC(=O)CCCCCCCCCCCCCCCCC(=O)O)C(=O)O)C(=O)N[C@@H](CC(N)=O)C(=O)N[C@@H]([C@@H](C)O)C(=O)N[C@@H](C)C(=O)N[C@@H]([C@@H](C)O)C(=O)N1)[C@@H](C)O)C(=O)N[C@@H](CC(C)C)C(=O)N1CCC[C@H]1C(=O)N1CCC[C@H]1C(=O)N[C@H](C(=O)N[C@@H](CC(N)=O)C(=O)N[C@H](C(=O)NCC(=O)N[C@@H](CO)C(=O)N[C@@H](Cc1c[nH]cn1)C(=O)N[C@H](C(=O)N[C@@H](Cc1ccc(O)cc1)C(N)=O)[C@@H](C)O)C(C)C)[C@@H](C)O
B3: N-alpha-[(S)-4-Carboxy-4-(19-carboxynonadecanoylamino)butyryl]-Gly-[His1,Glu14,His17,Pro37]-pramlintide (peptide)
peptide: {C20 diacid-γGlu}-GHCNTATCATQRLAEFLHHSSNNFGPILPPTNVGSNTP-NH2
modifications: disulfide 3-8
SMILES: CC[C@H](C)[C@H](NC(=O)[C@@H]1CCCN1C(=O)CNC(=O)[C@H](Cc1ccccc1)NC(=O)[C@H](CC(N)=O)NC(=O)[C@H](CC(N)=O)NC(=O)[C@H](CO)NC(=O)[C@H](CO)NC(=O)[C@H](Cc1c[nH]cn1)NC(=O)[C@H](Cc1c[nH]cn1)NC(=O)[C@H](CC(C)C)NC(=O)[C@H](Cc1ccccc1)NC(=O)[C@H](CCC(=O)O)NC(=O)[C@H](C)NC(=O)[C@H](CC(C)C)NC(=O)[C@H](CCCNC(=N)N)NC(=O)[C@H](CCC(N)=O)NC(=O)[C@@H](NC(=O)[C@H](C)NC(=O)[C@@H]1CSSC[C@H](NC(=O)[C@H](Cc2c[nH]cn2)NC(=O)CNC(=O)CC[C@H](NC(=O)CCCCCCCCCCCCCCCCCCC(=O)O)C(=O)O)C(=O)N[C@@H](CC(N)=O)C(=O)N[C@@H]([C@@H](C)O)C(=O)N[C@@H](C)C(=O)N[C@@H]([C@@H](C)O)C(=O)N1)[C@@H](C)O)C(=O)N[C@@H](CC(C)C)C(=O)N1CCC[C@H]1C(=O)N1CCC[C@H]1C(=O)N[C@H](C(=O)N[C@@H](CC(N)=O)C(=O)N[C@H](C(=O)NCC(=O)N[C@@H](CO)C(=O)N[C@@H](CC(N)=O)C(=O)N[C@H](C(=O)N1CCC[C@H]1C(N)=O)[C@@H](C)O)C(C)C)[C@@H](C)O
B4: N-alpha-[(S)-4-Carboxy-4-(19-carboxynonadecanoylamino)butyryl]-[Glu14,Pro37]-pramlintide (peptide)
peptide: {C20 diacid-γGlu}-KCNTATCATQRLAEFLVHSSNNFGPILPPTNVGSNTP-NH2
modifications: disulfide 2-7
SMILES: CC[C@H](C)[C@H](NC(=O)[C@@H]1CCCN1C(=O)CNC(=O)[C@H](Cc1ccccc1)NC(=O)[C@H](CC(N)=O)NC(=O)[C@H](CC(N)=O)NC(=O)[C@H](CO)NC(=O)[C@H](CO)NC(=O)[C@H](Cc1c[nH]cn1)NC(=O)[C@@H](NC(=O)[C@H](CC(C)C)NC(=O)[C@H](Cc1ccccc1)NC(=O)[C@H](CCC(=O)O)NC(=O)[C@H](C)NC(=O)[C@H](CC(C)C)NC(=O)[C@H](CCCNC(=N)N)NC(=O)[C@H](CCC(N)=O)NC(=O)[C@@H](NC(=O)[C@H](C)NC(=O)[C@@H]1CSSC[C@H](NC(=O)[C@H](CCCCN)NC(=O)CC[C@H](NC(=O)CCCCCCCCCCCCCCCCCCC(=O)O)C(=O)O)C(=O)N[C@@H](CC(N)=O)C(=O)N[C@@H]([C@@H](C)O)C(=O)N[C@@H](C)C(=O)N[C@@H]([C@@H](C)O)C(=O)N1)[C@@H](C)O)C(C)C)C(=O)N[C@@H](CC(C)C)C(=O)N1CCC[C@H]1C(=O)N1CCC[C@H]1C(=O)N[C@H](C(=O)N[C@@H](CC(N)=O)C(=O)N[C@H](C(=O)NCC(=O)N[C@@H](CO)C(=O)N[C@@H](CC(N)=O)C(=O)N[C@H](C(=O)N1CCC[C@H]1C(N)=O)[C@@H](C)O)C(C)C)[C@@H](C)O
B5: N-alpha-[(S)-4-Carboxy-4-(19-carboxynonadecanoylamino)butyryl]-[Arg1,Glu14,His17,His35]-pramlintide (peptide)
peptide: {C20 diacid-γGlu}-RCNTATCATQRLAEFLHHSSNNFGPILPPTNVGSHTY-NH2
modifications: disulfide 2-7
SMILES: CC[C@H](C)[C@H](NC(=O)[C@@H]1CCCN1C(=O)CNC(=O)[C@H](Cc1ccccc1)NC(=O)[C@H](CC(N)=O)NC(=O)[C@H](CC(N)=O)NC(=O)[C@H](CO)NC(=O)[C@H](CO)NC(=O)[C@H](Cc1c[nH]cn1)NC(=O)[C@H](Cc1c[nH]cn1)NC(=O)[C@H](CC(C)C)NC(=O)[C@H](Cc1ccccc1)NC(=O)[C@H](CCC(=O)O)NC(=O)[C@H](C)NC(=O)[C@H](CC(C)C)NC(=O)[C@H](CCCNC(=N)N)NC(=O)[C@H](CCC(N)=O)NC(=O)[C@@H](NC(=O)[C@H](C)NC(=O)[C@@H]1CSSC[C@H](NC(=O)[C@H](CCCNC(=N)N)NC(=O)CC[C@H](NC(=O)CCCCCCCCCCCCCCCCCCC(=O)O)C(=O)O)C(=O)N[C@@H](CC(N)=O)C(=O)N[C@@H]([C@@H](C)O)C(=O)N[C@@H](C)C(=O)N[C@@H]([C@@H](C)O)C(=O)N1)[C@@H](C)O)C(=O)N[C@@H](CC(C)C)C(=O)N1CCC[C@H]1C(=O)N1CCC[C@H]1C(=O)N[C@H](C(=O)N[C@@H](CC(N)=O)C(=O)N[C@H](C(=O)NCC(=O)N[C@@H](CO)C(=O)N[C@@H](Cc1c[nH]cn1)C(=O)N[C@H](C(=O)N[C@@H](Cc1ccc(O)cc1)C(N)=O)[C@@H](C)O)C(C)C)[C@@H](C)O
B6: N-alpha-[(S)-4-Carboxy-4-(19-carboxynonadecanoylamino)butyryl]-[Gly1,Glu14,His17,Pro37]-pramlintide (peptide)
peptide: X1-GCNTATCATQRLAEFLHHSSNNFGPILPPTNVGSNTP-NH2
modifications: disulfide 2-7
SMILES: CC[C@H](C)[C@H](NC(=O)[C@@H]1CCCN1C(=O)CNC(=O)[C@H](Cc1ccccc1)NC(=O)[C@H](CC(N)=O)NC(=O)[C@H](CC(N)=O)NC(=O)[C@H](CO)NC(=O)[C@H](CO)NC(=O)[C@H](Cc1c[nH]cn1)NC(=O)[C@H](Cc1c[nH]cn1)NC(=O)[C@H](CC(C)C)NC(=O)[C@H](Cc1ccccc1)NC(=O)[C@H](CCC(=O)O)NC(=O)[C@H](C)NC(=O)[C@H](CC(C)C)NC(=O)[C@H](CCCNC(=N)N)NC(=O)[C@H](CCC(N)=O)NC(=O)[C@@H](NC(=O)[C@H](C)NC(=O)[C@@H]1CSSC[C@H](NC(=O)CNC(=O)CC[C@H](NC(=O)CCCCCCCCCCCCCCCCCCC(=O)O)C(=O)O)C(=O)N[C@@H](CC(N)=O)C(=O)N[C@@H]([C@@H](C)O)C(=O)N[C@@H](C)C(=O)N[C@@H]([C@@H](C)O)C(=O)N1)[C@@H](C)O)C(=O)N[C@@H](CC(C)C)C(=O)N1CCC[C@H]1C(=O)N1CCC[C@H]1C(=O)N[C@H](C(=O)N[C@@H](CC(N)=O)C(=O)N[C@H](C(=O)NCC(=O)N[C@@H](CO)C(=O)N[C@@H](CC(N)=O)C(=O)N[C@H](C(=O)N1CCC[C@H]1C(N)=O)[C@@H](C)O)C(C)C)[C@@H](C)O

target: T1, human amylin 3(a) receptor (human …); assay: cell-based or functional assay

| Amylin receptor human EC50 | Binder |
| --- | --- |
| 34 pM | B1 |
| 120 pM | B2 |
| 52 pM | B3 |
| 55 pM | B4 |
| 82 pM | B5 |
| 54 pM | B6 |

target: T2, human calcitonin (a) receptor; assay: cell-based or functional assay

| CTa receptor human EC50 | Binder |
| --- | --- |
| 38.5 pM | B1 |
| 286 pM | B2 |
| 49 pM | B3 |
| 52.5 pM | B4 |
| 174 pM | B5 |
| 52 pM | B6 |
